The target in one assay is T1, mouse EDAR-Fc (mouse).
T1 construct: also called mouse EDAR (1-183)-Fc; soluble mouse EDAR-Fc fusion protein
Description: ELISA on mouse EDAR-Fc (FIG. 9). From the text:
FIG. 9. Epitope mapping of anti-EDAR monoclonal antibodies on recombinant human EDAR by ELISA. (A) Schematic linear representation of human EDAR showing the position of cystein residues (thin horizontal lines), of the putative N-linked glycosylation site (thick horizontal line, N), of the six structural modules (rectangles with rounded corners) composing the three cystein-rich domains (CRD1, CRD2, CRD3), of the transmembrane domain (rectangle, TMD), of the signal peptide (Leader), of the stalk and of the intracellular domain (ID). Amino acid numbers at the junctions of interest are indicated. The arrow indicates the predicted cleavage site of the signal peptide. The scheme is drawn to scale, except for the intracellular domain. (B) Wells of ELISA plates were coated with goat anti-human IgG antibody, blocked, and further incubated with human EDAR-Fc, mouse EDAR-Fc or the indicated human EDAR-Fc truncation proteins in cell supernatants of transfected cells. […] Binding of mAbEDARs were monitored with horseradish peroxydase-coupled anti-mouse IgG antibody.
In order to obtain antibodies recognizing both human and mouse EDAR, a feature which would considerably facilitate pre-clinical development of drug candidates, EDAR-deficient mice were immunized with human EDAR. It was then assessed whether monoclonal antibodies generated from these mice indeed recognized EDAR from these two animal species. […]

Assay [1] has as its target T2, human Fas-Fc (human, UniProt P25445 26-170, limits assumed).
T2 construct: Negative control protein; also called hFas-Fc; not shown: Fc portion
T2 sequence (looked up): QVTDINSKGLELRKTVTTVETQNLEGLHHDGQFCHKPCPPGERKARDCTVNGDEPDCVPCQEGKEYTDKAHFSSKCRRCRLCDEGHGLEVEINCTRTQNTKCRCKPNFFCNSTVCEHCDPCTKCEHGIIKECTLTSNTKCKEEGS
The experiment in a line: Western blot, 20 ng hFas-Fc (FIG. 7B). From the text: (§1) The weaker signal obtained with mouse EDAR might be explained by the lower amount of mouse EDAR-Fc loaded on the gel. Binding specificity is established by showing that none of the mAbEDARs does bind to Fas-Fc and Flag-human APRIL (while Flag-human APRIL is recognized by an anti-APRIL mAb). […] The band recognized by mAbEDAR5 in the BSA lane is probably due to a cross-contamination of EDAR-Fc in the neighboring lane.

The target in assay [2] is T3, human EDAR domains I and II fused to Fc of human IgG1 (human, UniProt Q9UNE0 27-114).
T3 construct: Tested as supernatant of transfected 293T cells; also called CRD1 and CRD2 EDAR-Fc truncation protein; fragment made up of domains I and II; not shown: Fc region of human IgG1
T3 sequence: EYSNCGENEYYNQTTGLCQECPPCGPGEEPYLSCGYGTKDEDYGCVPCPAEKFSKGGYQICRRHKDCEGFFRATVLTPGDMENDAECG
Description: capture ELISA on EDAR-Fc truncation proteins. From the text:
(§2) Epitope mapping of anti-EDAR monoclonal antibodies on recombinant human EDAR by ELISA. (A) Schematic linear representation of human EDAR showing the position of cystein residues (thin horizontal lines), of the putative N-linked glycosylation site (thick horizontal line, N), of the six structural modules (rectangles with rounded corners) composing the three cystein-rich domains (CRD1, CRD2, CRD3), of the transmembrane domain (rectangle, TMD), of the signal peptide (Leader), of the stalk and of the intracellular domain (ID). Amino acid numbers at the junctions of interest are indicated. The arrow indicates the predicted cleavage site of the signal peptide. The scheme is drawn to scale, except for the intracellular domain. (B) Wells of ELISA plates were coated with goat anti-human IgG antibody, blocked, and further incubated with human EDAR-Fc, mouse EDAR-Fc or the indicated human EDAR-Fc truncation proteins in cell supernatants of transfected cells. One well was also left without cell supernatant (Ctrl). The efficient capture of the various EDAR-Fc proteins was controlled using horseradish peroxydase-coupled donkey anti-human IgG antibody. Binding of mAbEDARs were monitored with horseradish peroxydase-coupled anti-mouse IgG antibody.
(§3) EDAR is a transmembrane protein whose extracellular part is composed of three membrane distal cystein-rich domains (CRDs) and of a proximal membrane stalk domain (FIG. 9A). Constructs coding for the entire EDAR protein, domains I and II, domains II and III, domain III and the stalk domain, domains I, II and III alone and the stalk domain alone were assembled with the Fc region of human IgG1, inserted into a mammalian expression vector and transiently transfected in 293T cells. […] The other fragments were not recognized, in particular the fragments made up of either domain I or II alone. mAbEDAR5, 6, 12 and 13 specifically recognized domain I, alone or together with domain II. mAbEDAR9, 14 and 15 only recognized Fc constructs containing the entire EDAR extracellular domain.

Assay [3] deals with T4, human EDAR domain I alone fused to Fc of human IgG1 (human, UniProt Q9UNE0 27-72).
T4 construct: also called CRD1 EDAR-Fc truncation protein; not shown: Fc region of human IgG1
T4 chain: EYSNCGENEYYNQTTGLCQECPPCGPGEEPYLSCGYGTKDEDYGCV
Description: capture ELISA on EDAR-Fc truncation proteins.
Text: as §2, §3

The next assay deals with T5, human EDAR-Fc (human).
T5 construct: also called hEDAR-Fc; human EDAR (1-183)-Fc
The experiment in a line: Western blot, non-reducing, 20 ng human EDAR-Fc (FIG. 7B).
Text: as §1

The next assay deals with T6, Flag-human APRIL (human, UniProt O75888 110-250, limits assumed).
T6 construct: Control antigen; not shown: Flag tag
T6 sequence (looked up): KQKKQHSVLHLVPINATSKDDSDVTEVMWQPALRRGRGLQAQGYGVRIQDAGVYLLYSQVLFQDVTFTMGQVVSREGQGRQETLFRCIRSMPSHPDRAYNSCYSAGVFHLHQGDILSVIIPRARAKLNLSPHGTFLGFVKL
The experiment in a line: Western blot (FIG. 7A).
Text: FIG. 7. Use of anti-EDAR mAb in Western blotting.
as §1

The target in assay [4] is T2, human Fas-Fc. The experiment in a line: ELISA on coated human Fas-Fc (FIG. 6C). The method, then: FIG. 6. Specific binding of the anti-EDAR mAb to both mouse and human EDAR. Graded concentrations of mAbEDAR1-4 or of a control mAb (Aprily 5) were added to wells of a 96-well ELISA plate coated with 100 μl of 1 μg/ml of human EDAR-Fc, mouse EDAR-Fc, human Fas-Fc or Flag-human APRIL. […] The absorbance was measured at 490 nm.
In order to obtain antibodies recognizing both human and mouse EDAR, a feature which would considerably facilitate pre-clinical development of drug candidates, EDAR-deficient mice were immunized with human EDAR. It was then assessed whether monoclonal antibodies generated from these mice indeed recognized EDAR from these two animal species. The wells of microtiter plates were coated with soluble human and mouse EDAR-Fc fusion protein and a negative control protein (human Fas-Fc), blocked and probed with serial dilutions of anti-EDAR monoclonal antibody (mAb) mAbEDAR1, 2, 3 and 4 and a negative control mAb (Aprily 5) (FIG. 6), or with a single dose of mAbEDAR1 to 15 (FIG. 9).

The target of assay [5] is T4, human EDAR domain I alone fused to Fc …. Description: capture ELISA on EDAR-Fc truncation proteins (FIG. 9).
Text: as §2, §3

The target in assay [6] is T7, human EDAR domain II alone fused to Fc of human IgG1 (human, UniProt Q9R187 73-114 (mouse entry), limits assumed).
T7 construct: also called CRD2 EDAR-Fc truncation protein; not shown: Fc region of human IgG1
T7 chain: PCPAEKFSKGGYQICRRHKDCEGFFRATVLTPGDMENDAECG
Described as above.
Text: as §2, §3

The target of assay [7] is T8, human EDAR stalk domain alone fused to Fc of human IgG1 (human, limits assumed).
T8 construct: also called stalk EDAR-Fc truncation protein; not shown: Fc region of human IgG1
T8 chain: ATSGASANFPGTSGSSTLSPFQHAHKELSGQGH
The assay is described as above.
Text: as §2, §3

Assay [8] deals with T9, hEDAR-Fas on Fas-deficient Jurkat cells (human, UniProt P25445 169-335, limits assumed).
T9 sequence: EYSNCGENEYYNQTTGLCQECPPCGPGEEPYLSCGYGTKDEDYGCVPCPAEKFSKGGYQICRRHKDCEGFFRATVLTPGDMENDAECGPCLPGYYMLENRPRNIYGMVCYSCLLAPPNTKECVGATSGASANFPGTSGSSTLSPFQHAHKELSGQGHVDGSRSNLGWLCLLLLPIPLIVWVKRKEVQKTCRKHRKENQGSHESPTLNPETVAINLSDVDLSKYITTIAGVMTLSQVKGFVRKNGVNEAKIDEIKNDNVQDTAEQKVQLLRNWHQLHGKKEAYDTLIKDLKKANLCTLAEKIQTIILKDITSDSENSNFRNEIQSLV
The experiment in a line: cell-based or functional assay.

The target of assay [9] is T10, mEDAR-Fas on Fas-deficient Jurkat cells (mouse; human, UniProt P25445 169-335, limits assumed).
T10 sequence: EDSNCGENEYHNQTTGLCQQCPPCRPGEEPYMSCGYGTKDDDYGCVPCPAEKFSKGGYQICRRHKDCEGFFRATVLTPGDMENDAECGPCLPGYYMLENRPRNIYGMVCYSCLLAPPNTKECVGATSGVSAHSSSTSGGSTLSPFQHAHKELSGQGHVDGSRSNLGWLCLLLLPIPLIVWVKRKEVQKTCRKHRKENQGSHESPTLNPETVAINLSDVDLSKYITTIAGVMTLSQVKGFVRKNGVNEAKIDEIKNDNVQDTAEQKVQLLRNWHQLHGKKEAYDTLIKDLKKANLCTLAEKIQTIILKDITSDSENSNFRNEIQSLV
The experiment in a line: cell-based or functional assay.

The target in assay [10] is EDAR-Fas fusion protein on Fas-deficient Jurkat cells (human or mouse EDAR not told apart) (human, UniProt P25445 169-335). Description: cell-based or functional assay.

B1: mAbEDAR6 (antibody, IgG2a, V domains shown)
VH: EVQLQQSGPELVKPGASVKMSCKASGYSFTGYNMHWVKQSHGKSLEWIGYIDPYNGATSKNQKFKGKATLTVDKSSTTAYIQLNSLTSEDSAVYYCARYYYGDYHWYFDVWGAGTTVTVSS
VL: DVVMTQTPLSLPVSLGDQASISCRSSQSLVHSNGNTYLHWYLQQPGQSPKLLIYKVSNRFSGVPDRFSGSGSGTDFTLKISRVEAEDLGVYFCSQHTHVPPTFGAGTKLELKR
As for B1, the binding result with mouse EDAR-Fc is “binds”; with human Fas-Fc [1], “no binding”; in [2], “binds”; in assay [3], “binds”; in the assay with human EDAR-Fc it was “binds”.

B2: mAbEDAR1 (antibody, IgG1, V domains shown)
VH: EVPLEESGGGLVKPGGSRKLSCAASGFTFSDHGMHWVRQAPEKGLEWIAYISSGSSNVYYSDTVKGRFTISRDNAKNTLFLQMTSLRSEDTAMYYCARRELLRFYFDVWGAGTTVTVSS
VL: DIQMTQTTSSLSASLGDRVTISCRASQDIGNHLNWYQQKPDGTVKLLIYYTSRIHSGVPSRFSGSGSGTDYSLTISNLEQEDIATYFCQQGNTLPWTFGGGTKLEIKR
notes: also called anti-EDAR mAb mAbEDAR1
Take B2: the binding result in the assay with Flag-human APRIL is listed as “no binding”; in the assay with human Fas-Fc [4], “no binding”; in assay [2], “binds”; in assay [5], “no binding”; in assay [6], “no binding”; in [7], “no binding”.

B3: mAbEDAR3 (antibody, IgG1, V domains shown)
VH: EVPLEESGGGLVKPGGSRKLSCAASGFTFSDYGMHWVRQAPEKGLEWVAYISSGSSAIYYADTVKGRFTISRDNAKSTLFLQMTSLRSEDTAMYYCARREILRYYFDVWGAGTTVTVSS
VL: DIQMTQSTSSLSASLGDRVTISCRASQDISNNLNWYQQRPDGTVKLLIYYTSRSQSGVPSRFSGSGSGTDYSLTISNLEQEDVATYFCHQGKTLPYTFGGGTKLEIKR
notes: also called anti-EDAR mAb mAbEDAR3
With B3, the binding result with Flag-human APRIL is “no binding”; in the assay with human Fas-Fc [1], “no binding”; in assay [2] it was “binds”; in assay [5], “no binding”; in assay [6], “no binding”; in [7] it was “no binding”.

B4: mAbEDAR5 (antibody, IgG2b, V domains shown)
VH: QVQLKQSGPGLVQPSQSLSITCTVSGFSLSNYGVHWIRQSPGKGLEWLGVIWGGGSTDYNAAFISRLSISKDNSKSQVFFKMNSLQADDTAIYYCASYYGYYDWFAYWGQGTLVTVSA
VL: EIVLTQSPTTMAASPGEKITITCSASSIISSNYLHWYQQKPGFSPKPLIYRTSNLASGVPARFSGSGSGTSYSLTIGTMEAEDVATYYCQQGSSIPRTFGSGTKLEIKR
As to B4, the binding result is reported as “binds” with mouse EDAR-Fc; “no binding” in the assay with human Fas-Fc [1]; “binds” in assay [2]; “binds” in [3]; “binds” with human EDAR-Fc.

B5: Fc-EDA1 (Fc fusion, UniProt Q92838 245-391, looked up, not shown: a dimerising Fc or GST)
chain: ENQPAVVHLQGQGSAIQVKNDLSGGVLNDWSRITMNPKVFKLHPRSGELEVLVDGTYFIYSQVEVYYINFTDFASYEVVVDEKPFLQCTRSIETGKTNYNTCYTAGVCLLKARQKIAVKMVHADISINMSKHTTFFGAIRLGEAPAS
Regarding B5, the “EC50 (concentration of agonist inducing half maximal decrease of cell viability), hEDAR-Fas Jurkat cells” value in assay [8] is about 1 ng/mL. The “EC50 (concentration of agonist inducing half maximal decrease of cell viability), mEDAR-Fas Jurkat cells” value in assay [9] was about 1 ng/mL. Moreover, the “EC50 (concentration of agonist inducing half maximal decrease of cell viability), EDAR-Fas Jurkat cells” value in assay [10] lay in the range of 3 to 9 ng/mL.

(Values after US20130273046A1 (UNIVERSITE DE LAUSANNE, published 2013).)
